Test results as given in patent US20080286287A1 (MURDOCH CHILDRENS RESEARCH INSTITUTE, published 2008).

Experiments:
[1] = biological target: T1, Human-IGF-I (human, UniProt P05019 49-118); experiment: competitive radioligand binding in solution (125I-IGF-I vs unlabeled IGF-I), immunoprecipitation with anti-IGFBP-2, one-site fit
T1 construct: also called IGF-1
Text: (§1) Table 4 tabulates data showing the effect of mutagenesis on the affinity of IGFBP-2 for the IGFs. The HBD, ₁₇₉PKKLRP₁₈₄, was mutated to ₁₇₉PNNLAP₁₈₄ and the ₂₆₅RGD₂₆₇ domain was mutated to ₂₆₅RGE₂₆₇. Native and mutant IGFBP-2 were purified by IGF-I affinity chromatography and quantified by an IGFBP-2 ELISA or radioimmuno assay (RIA) as described in the Examples. IGF binding affinities of the modified IGFBP-2 mutants were similar to those of native IGFBP-2.
(§2) The impact of these exemplary mutations in IGFBP-2 were tested to see if they affected IGF binding affinity. Native, HBD and RGD-IGFBP-2 (all 2.5 ng) were incubated with either ¹²⁵I-IGF-I or -II (15,000 cpm) in the presence of increasing concentrations of unlabeled IGF-I or -II (0.0025-0.15 nM). Binding was for 2 h at room temperature in 100 μl binding buffer [BB; 50 mM sodium phosphate pH 7.4, 0.1 M NaCl, 0.05% (w/v) NaN3, 0.2% fatty acid free BSA (Sigma, Steinheim, Germany), 0.1% (v/v) Triton X-100]. […] Bound radioactivity in precipitates was quantified in a γ-counter. Each point was measured in quadruplicate. […]

[2] = biological target: T2, IGF-II (UniProt P01344 25-91); experiment: competitive radioligand binding in solution (125I-IGF-II vs unlabeled IGF-II), immunoprecipitation with anti-IGFBP-2, one-site fit
T2 construct: also called unlabeled IGF-II
Text: as §1, §2

T2 sequence (P01344 25-91 limits assumed): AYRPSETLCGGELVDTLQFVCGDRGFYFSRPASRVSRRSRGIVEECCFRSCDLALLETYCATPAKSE
T1 sequence (P05019 49-118 limits assumed): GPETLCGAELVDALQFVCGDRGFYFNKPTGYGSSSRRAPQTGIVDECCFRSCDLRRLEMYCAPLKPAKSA

Kd [1]: 1450 pM
Kd [2]: 520 pM
B1: HBD-IGFBP-2 mutant (179PKKLRP184 mutated to 179PNNLAP184) (other)
chain: EVLFRCPPCTPERLAACGPPPVAPPAAVAAVAGGARMPCAELVREPGCGCCSVCARLEGEACGVYTPRCGQGLRCYPHPGSELPLQALVMGEGTCEKRRDAEYGASPEQVADNGDDHSEGGLVENHVDSTMNMLGGGGSAGRKPLKSGMKELAVFREKVTEQHRQMGKGGKHHLGLEEPNNLAPPPARTPCQQELDQVLERISTMRLPDERGPLEHLYSLHIPNCDKHGLYNLKQCKMSLNGQRGECWCVNPNTGKLIQGAPTIRGDPECHLFYNEQQEARGVHTQRMQ
notes: Positions are as printed; also called HBD modified IGFBP-2; PCS3
